Experimental data reported in PMC3627579.
Like-named read-outs stand apart in the source and are kept apart here.

T1: TRBP-D2 (Homo sapiens, UniProt Q15633 157-228)
T1 sequence: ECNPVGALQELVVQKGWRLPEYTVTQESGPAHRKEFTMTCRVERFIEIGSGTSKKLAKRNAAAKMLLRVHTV

T2: TRBP-D12 (Homo sapiens, UniProt Q15633 19-228)
T2 sequence: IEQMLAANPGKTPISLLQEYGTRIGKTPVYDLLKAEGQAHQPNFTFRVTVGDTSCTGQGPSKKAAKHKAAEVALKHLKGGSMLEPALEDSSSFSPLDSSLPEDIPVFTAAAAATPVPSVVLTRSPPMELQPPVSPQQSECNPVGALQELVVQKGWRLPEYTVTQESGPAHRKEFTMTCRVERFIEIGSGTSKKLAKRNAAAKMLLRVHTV

T3: TRBP-D1 (Homo sapiens, UniProt Q15633 19-99)
T3 sequence: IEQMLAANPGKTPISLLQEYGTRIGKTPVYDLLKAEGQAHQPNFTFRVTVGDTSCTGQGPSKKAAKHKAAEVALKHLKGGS


Experiments:
Assay in all cases: ITC
TRBP-D2 = molecular target: T1, TRBP-D2
TRBP-D12 [1] = molecular target: T2, TRBP-D12
TRBP-D1 = molecular target: T3, TRBP-D1
TRBP-D12 [2] = molecular target: T2, TRBP-D12; remark: listed apart in the source

Binder | Kd (TRBP-D2) | Kd (TRBP-D12 [1]) | Kd (TRBP-D1) | Kd (TRBP-D12 [2])
pre-miR-155 (structured_RNA) RNA: GGAAUGCUAAUCGUGAUAGGGGUUUUUGCCUCCAACUGACUCCUACAUAUUAGCAUUCCCA | 3700 ± 500 nM | 500 nM | 15400 ± 800 nM | –
miR-155/miR-155* (dsRNA) RNA 1: GGAAUGCUAAUCGUGAUAGGCCU RNA 2: GGCCUACAUAUUAGCAUUCCCA | – | – | – | 1000 ± 700 nM
